For one test, the target named is T1, B7H3 (UniProt Q5ZPR3 29-466, limits assumed).
T1 sequence (looked up): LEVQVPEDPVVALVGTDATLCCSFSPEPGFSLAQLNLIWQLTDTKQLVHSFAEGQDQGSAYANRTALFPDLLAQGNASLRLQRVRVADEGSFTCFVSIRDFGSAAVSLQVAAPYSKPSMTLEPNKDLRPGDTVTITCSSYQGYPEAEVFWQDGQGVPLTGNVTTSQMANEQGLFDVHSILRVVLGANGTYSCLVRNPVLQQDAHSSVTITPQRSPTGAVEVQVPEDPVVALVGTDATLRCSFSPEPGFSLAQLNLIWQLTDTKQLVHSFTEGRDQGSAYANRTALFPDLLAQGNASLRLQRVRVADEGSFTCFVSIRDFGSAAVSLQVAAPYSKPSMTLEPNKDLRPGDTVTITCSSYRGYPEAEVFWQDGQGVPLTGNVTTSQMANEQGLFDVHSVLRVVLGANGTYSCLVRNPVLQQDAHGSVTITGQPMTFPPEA
The test can be described thus: FCM or ELISA (graded summary table).

A further test concerns the target CD40 (UniProt P25942 21-193, limits assumed). The test can be described thus: FCM or ELISA, graded. For orientation: In an ELISA, binding on a coated surface is turned into a signal by an enzyme label.
Another test has as its target PD-1 (binding assay) (UniProt Q15116 25-167, limits assumed). The test can be described thus: FCM or ELISA, graded.
For another test, the target named is T2, CD137 (UniProt Q07011 24-186, limits assumed).
T2 construct: also called 4-1BB
The test can be described thus: FCM or ELISA (graded summary table).

Another test deals with T3, CD19 (UniProt P15391 20-556, limits assumed).
T3 construct: whole, on cells
T3 sequence (looked up): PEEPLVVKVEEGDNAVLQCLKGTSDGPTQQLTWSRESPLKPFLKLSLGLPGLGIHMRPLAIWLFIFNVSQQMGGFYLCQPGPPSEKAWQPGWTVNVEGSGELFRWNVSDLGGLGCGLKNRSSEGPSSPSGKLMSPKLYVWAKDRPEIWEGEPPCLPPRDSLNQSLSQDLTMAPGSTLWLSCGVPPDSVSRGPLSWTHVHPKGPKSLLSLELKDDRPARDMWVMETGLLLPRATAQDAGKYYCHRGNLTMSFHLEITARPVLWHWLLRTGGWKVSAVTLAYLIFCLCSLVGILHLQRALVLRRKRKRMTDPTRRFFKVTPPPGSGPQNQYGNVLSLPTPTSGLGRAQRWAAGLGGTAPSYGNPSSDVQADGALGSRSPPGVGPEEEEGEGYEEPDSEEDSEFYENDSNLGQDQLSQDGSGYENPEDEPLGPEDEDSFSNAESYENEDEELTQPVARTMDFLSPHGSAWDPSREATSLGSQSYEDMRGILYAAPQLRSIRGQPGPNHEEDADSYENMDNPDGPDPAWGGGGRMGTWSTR
In words: FCM or ELISA (graded summary table).

Positions count from the first letter of the chain named.

Sequence of CD40 (P25942 21-193 limits assumed): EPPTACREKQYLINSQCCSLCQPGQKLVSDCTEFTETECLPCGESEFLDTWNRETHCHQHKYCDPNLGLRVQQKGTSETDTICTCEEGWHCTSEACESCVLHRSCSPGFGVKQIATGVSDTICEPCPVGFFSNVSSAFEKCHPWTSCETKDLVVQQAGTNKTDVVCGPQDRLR
Sequence of PD-1 (binding assay) (Q15116 25-167 limits assumed): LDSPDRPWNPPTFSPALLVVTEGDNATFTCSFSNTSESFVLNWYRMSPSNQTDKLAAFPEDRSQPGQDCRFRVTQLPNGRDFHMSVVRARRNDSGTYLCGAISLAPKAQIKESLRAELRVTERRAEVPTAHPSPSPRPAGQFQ

B1: Ly1965 (bispecific antibody)
chain 1: QVQLVQSGAEVKKPGASVKVSCKASGYTFTSYVMHWVRQKPGQGLEWIGYINPYNEGTESTDKFKGRATMTSDKSTSTVYMELSSLRSEDTAVYYCASIYYGYEGTYFGVWGQGTLVTVSSASTKGPSVFPLAPSSKSTSGGTAALGCLVKDYFPEPVTVSWNSGALTSGVHTFPAVLQSSGLYSLSSVVTVPSSSLGTQTYICNVNHKPSNTKVDKKVEPKSCGGGGSGGGGSGGGGSGGGGSEVQLVESGGGLVQPGGSLRLSCAASGFTFSTYAMNWVRQAPGKGLEWVGRIRSKYNNYATYYADSVKGRFTISRDDSKNSLYLQMNSLKTEDTAVYYCVRHGNFGNSYVSWFAYWGQGTLVTVSSGGGGSDKTHTCPPCPAPEAAGPSVFLFPPKPKDTLMISRTPEVTCVVVDVSHEDPEVKFNWYVDGVEVHNAKTKPREEQYNSTYRVVSVLTVLHQDWLNGKEYKCKVSNKALPAPIEKTISKAKGQPREPQVYTLPPSREEMTKNQVSLWCLVKGFYPSDIAVEWESNGQPENNYKTTPPVLDSDGSFFLYSKLTVDKSRWQQGNVFSCSVMHEALHNHYTQKSLSLSPG
chain 2: QVQLVQSGAEVKKPGASVKVSCKASGYTFTSYVMHWVRQKPGQGLEWIGYINPYNEGTESTDKFKGRATMTSDKSTSTVYMELSSLRSEDTAVYYCASIYYGYEGTYFGVWGQGTLVTVSSASTKGPSVFPLAPSSKSTSGGTAALGCLVKDYFPEPVTVSWNSGALTSGVHTFPAVLQSSGLYSLSSVVTVPSSSLGTQTYICNVNHKPSNTKVDKKVEPKSCGGGGSGGGGSGGGGSGGGGSQAVVTQEPSLTVSPGGTVTLTCRSSTGAVTTSNYANWVQQKPGQAPRGLIGGTNKRAPWTPARFSGSLLGGKAALTITGAQAEDEADYYCALWYSNLWVFGGGTKLTVLGGGGSDKTHTCPPCPAPEAAGPSVFLFPPKPKDTLMISRTPEVTCVVVDVSHEDPEVKFNWYVDGVEVHNAKTKPREEQYNSTYRVVSVLTVLHQDWLNGKEYKCKVSNKALPAPIEKTISKAKGQPREPQVYTLPPSREEMTKNQVSLSCAVKGFYPSDIAVEWESNGQPENNYKTTPPVLDSDGSFFLVSKLTVDKSRWQQGNVFSCSVMHEALHNRFTQKSLSLSPG
light: EIVLTQSPATLSLSPGERATLSCRASSSVSYMHWYQQKPGQAPRPWIYATSNLASGIPARFSGSRSGTDYTLTISSLEPEDFAVYYCQQWSSNTLTFGGGTKVEIKRTVAAPSVFIFPPSDEQLKSGTASVVCLLNNFYPREAKVQWKVDNALQSGNSQESVTEQDSKDSTYSLSSTLTLSKADYEKHKVYACEVTHQGLSSPVTKSFNRGEC
notes: Bispecific B7H3 (two Fabs) / CD3 (central Fv)
With B1, the binding result with B7H3 was “binds”.

B2: Ly2405 (bispecific antibody, human IgG1, kappa)
heavy 1: not shown
heavy 2: QVTLKESGPALVKPTQTLTLTCTFSGFSLSTSGTCVSWIRQPPGKALEWLATICWEDSKGYNPSLKSRLTISKDTSKNQAVLTMTNMDPVDTATYYCARREDSGYFWFPYWGQGTLVTVSSASTKGPSVFPLAPSSKSTSGGTAALGCLVKDYFPEPVTVSWNSGALTSGVHTFPAVLQSSGLYSLSSVVTVPSSSLGTQTYICNVNHKPSNTKVDKKVEPKSCDKTHTCPPCPAPEAAGPSVFLFPPKPKDTLMISRTPEVTCVVVDVSHEDPEVKFNWYVDGVEVHNAKTKPREEQYNSTYRVVSVLTVLHQDWLNGKEYKCKVSNKALPAPIEKTISKAKGQPREPQVYTLPPSREEMTKNQVSLSCAVKGFYPSDIAVEWESNGQPENNYKTTPPVLDSDGSFFLVSKLTVDKSRWQQGNVFSCSVMHEALHNRFTQKSLSLSPGGGGGSGGGGSGGGGSGGGGSDIQMTQSPSSVSASVGDRVTITCRASQGIYSWLAWYQQKPGKAPNLLIYTASTLQSGVPSRFSGSGSGTDFTLTISSLQPEDFATYYCQQANIFPLTFGGGTKVEIK
light: NIQMTQSPSSLSASVGDRVTITCKAGQNVNNYLAWYQQKPGKAPKVLIFNANSLQTGVPSRFSGSGSGTDFTLTISSLQPEDFATYYCQQYNSWPTFGGGTKVEIKRTVAAPSVFIFPPSDEQLKSGTASVVCLLNNFYPREAKVQWKVDNALQSGNSQESVTEQDSKDSTYSLSSTLTLSKADYEKHKVYACEVTHQGLSSPVTKSFNRGEC
notes: PD-1 Fabs (Ly516) x terminal CD40 Fv (TM383)
For B2, the binding result with CD40 and in the test with PD-1 (binding assay) was “binds” in each case.

B3: Ly1966 (other)
chain 1: QVQLQQSGAELVRPGSSVKISCKASGYAFSSYWMNWVKQRPGQGLEWIGQIWPGDGDTNYNGKFKGKATLTADESSSTAYMQLSSLASEDSAVYFCARRETTTVGRYYYAMDYWGQGTTVTVSSASTKGPSVFPLAPSSKSTSGGTAALGCLVKDYFPEPVTVSWNSGALTSGVHTFPAVLQSSGLYSLSSVVTVPSSSLGTQTYICNVNHKPSNTKVDKKVEPKSCGGGGSGGGGSGGGGSGGGGSEVQLVESGGGLVQPGGSLRLSCAASGFTFSTYAMNWVRQAPGKGLEWVGRIRSKYNNYATYYADSVKGRFTISRDDSKNSLYLQMNSLKTEDTAVYYCVRHGNFGNSYVSWFAYWGQGTLVTVSSGGGGSDKTHTCPPCPAPEAAGPSVFLFPPKPKDTLMISRTPEVTCVVVDVSHEDPEVKFNWYVDGVEVHNAKTKPREEQYNSTYRVVSVLTVLHQDWLNGKEYKCKVSNKALPAPIEKTISKAKGQPREPQVYTLPPSREEMTKNQVSLWCLVKGFYPSDIAVEWESNGQPENNYKTTPPVLDSDGSFFLYSKLTVDKSRWQQGNVFSCSVMHEALHNHYTQKSLSLSPGGGGGSGGGGSGGGGSGGGGSQVQLVQSGAEVKKPGASVKVSCKASGYTFAGFEMHWVRQAPGQGLEWMGAIDPKTGGTDYNQKFKDRVTMTRDTSISTAYMELSRLRSDDTAVYYCARDLGYFDVWGQGTLVTVSS
chain 2: QVQLQQSGAELVRPGSSVKISCKASGYAFSSYWMNWVKQRPGQGLEWIGQIWPGDGDTNYNGKFKGKATLTADESSSTAYMQLSSLASEDSAVYFCARRETTTVGRYYYAMDYWGQGTTVTVSSASTKGPSVFPLAPSSKSTSGGTAALGCLVKDYFPEPVTVSWNSGALTSGVHTFPAVLQSSGLYSLSSVVTVPSSSLGTQTYICNVNHKPSNTKVDKKVEPKSCGGGGSGGGGSGGGGSGGGGSQAVVTQEPSLTVSPGGTVTLTCRSSTGAVTTSNYANWVQQKPGQAPRGLIGGTNKRAPWTPARFSGSLLGGKAALTITGAQAEDEADYYCALWYSNLWVFGGGTKLTVLGGGGSDKTHTCPPCPAPEAAGPSVFLFPPKPKDTLMISRTPEVTCVVVDVSHEDPEVKFNWYVDGVEVHNAKTKPREEQYNSTYRVVSVLTVLHQDWLNGKEYKCKVSNKALPAPIEKTISKAKGQPREPQVYTLPPSREEMTKNQVSLSCAVKGFYPSDIAVEWESNGQPENNYKTTPPVLDSDGSFFLVSKLTVDKSRWQQGNVFSCSVMHEALHNRFTQKSLSLSPGGGGGSGGGGSGGGGSGGGGSDIQMTQSPSSLSASVGDRVTITCRASQDIRSNLNWYQQKPGGAVKLLIYYTSRLHSGVPSRFSGSGSGTDYTLTISSLQPEDFATYFCQQSEKLPRTFGGGTKVEIR
light: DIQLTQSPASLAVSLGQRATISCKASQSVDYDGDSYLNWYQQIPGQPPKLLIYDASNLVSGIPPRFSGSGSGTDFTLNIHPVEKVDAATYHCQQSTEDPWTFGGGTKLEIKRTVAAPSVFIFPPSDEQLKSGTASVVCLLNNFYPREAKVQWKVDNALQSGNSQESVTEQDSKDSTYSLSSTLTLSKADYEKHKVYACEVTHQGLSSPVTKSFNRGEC
notes: Tri-specific antibody CD19 (two Fabs) / CD3 (central Fv) / CD137 (terminal Fv)
Regarding B3, the binding result with CD137 is on record as “binds”.

B4: Ly1967 (other)
chain 1: B3 chain 1
chain 2: B3 chain 2 with R575H, F576Y
light: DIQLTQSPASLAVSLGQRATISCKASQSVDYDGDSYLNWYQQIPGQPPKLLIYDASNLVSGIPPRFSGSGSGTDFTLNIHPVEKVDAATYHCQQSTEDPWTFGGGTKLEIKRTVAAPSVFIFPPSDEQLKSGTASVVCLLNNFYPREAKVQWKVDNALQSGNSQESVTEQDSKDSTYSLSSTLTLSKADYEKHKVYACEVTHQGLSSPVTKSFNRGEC
notes: as for B3
With B4, the binding result with CD137 is recorded as “binds”.

B5: Ly2326 (bispecific antibody, human IgG1, kappa)
chain 1: QVQLQQSGAELVRPGSSVKISCKASGYAFSSYWMNWVKQRPGQGLEWIGQIWPGDGDTNYNGKFKGKATLTADESSSTAYMQLSSLASEDSAVYFCARRETTTVGRYYYAMDYWGQGTTVTVSSASTKGPSVFPLAPSSKSTSGGTAALGCLVKDYFPEPVTVSWNSGALTSGVHTFPAVLQSSGLYSLSSVVTVPSSSLGTQTYICNVNHKPSNTKVDKKVEPKSCDKTHTCPPCPAPEAAGPSVFLFPPKPKDTLMISRTPEVTCVVVDVSHEDPEVKFNWYVDGVEVHNAKTKPREEQYNSTYRVVSVLTVLHQDWLNGKEYKCKVSNKALPAPIEKTISKAKGQPREPQVYTLPPSREEMTKNQVSLWCLVKGFYPSDIAVEWESNGQPENNYKTTPPVLDSDGSFFLYSKLTVDKSRWQQGNVFSCSVMHEALHNHYTQKSLSLSPGGGGGSGGGGSGGGGSGGGGSQVQLVQSGAEVKKPGASVKVSCKASGYTFAGFEMHWVRQAPGQGLEWMGAIDPKTGGTDYNQKFKDRVTMTRDTSISTAYMELSRLRSDDTAVYYCARDLGYFDVWGQGTLVTVSS
chain 2: QVQLQQSGAELVRPGSSVKISCKASGYAFSSYWMNWVKQRPGQGLEWIGQIWPGDGDTNYNGKFKGKATLTADESSSTAYMQLSSLASEDSAVYFCARRETTTVGRYYYAMDYWGQGTTVTVSSASTKGPSVFPLAPSSKSTSGGTAALGCLVKDYFPEPVTVSWNSGALTSGVHTFPAVLQSSGLYSLSSVVTVPSSSLGTQTYICNVNHKPSNTKVDKKVEPKSCDKTHTCPPCPAPEAAGPSVFLFPPKPKDTLMISRTPEVTCVVVDVSHEDPEVKFNWYVDGVEVHNAKTKPREEQYNSTYRVVSVLTVLHQDWLNGKEYKCKVSNKALPAPIEKTISKAKGQPREPQVYTLPPSREEMTKNQVSLSCAVKGFYPSDIAVEWESNGQPENNYKTTPPVLDSDGSFFLVSKLTVDKSRWQQGNVFSCSVMHEALHNRFTQKSLSLSPGGGGGSGGGGSGGGGSGGGGSDIQMTQSPSSLSASVGDRVTITCRASQDIRSNLNWYQQKPGGAVKLLIYYTSRLHSGVPSRFSGSGSGTDYTLTISSLQPEDFATYFCQQSEKLPRTFGGGTKVEIR
light: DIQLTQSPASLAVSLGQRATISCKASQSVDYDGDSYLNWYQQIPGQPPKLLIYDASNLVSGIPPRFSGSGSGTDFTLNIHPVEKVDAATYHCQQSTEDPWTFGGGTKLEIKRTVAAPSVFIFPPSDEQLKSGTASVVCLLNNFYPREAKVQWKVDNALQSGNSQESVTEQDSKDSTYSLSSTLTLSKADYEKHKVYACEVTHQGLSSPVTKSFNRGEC
notes: Bispecific CD19 (two Fabs) / CD137 (terminal Fv)
In the case of B5, the binding result with CD137 and with CD19 was “binds” in each case.

(Values after patent US20250388669A1 (published 2025).)
